According to patent US20250129150A1 (APOGEE THERAPEUTICS, published 2025):

T1: Recombinant Cynomolgus IL-13 Protein, His Tag (SINO BIOLOGICAL, Cat. 11057-C07H) (cynomolgus monkey, UniProt Q5I6E4 19-132 (Macaca thibetana entry))
T1 construct: also called Cyno IL-13; cynomolgus monkey IL-13
T1 chain: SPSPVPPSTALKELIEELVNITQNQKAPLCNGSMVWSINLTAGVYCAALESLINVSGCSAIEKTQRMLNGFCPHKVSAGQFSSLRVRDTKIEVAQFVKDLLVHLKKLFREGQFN


Key:
hIL-13 [1] = target: T2, hIL-13 (human, UniProt P35225 35-146, limits assumed); assay: cell-based or functional assay
T2 sequence (P35225 other isoform, or with tags, fused parts or gaps limits assumed): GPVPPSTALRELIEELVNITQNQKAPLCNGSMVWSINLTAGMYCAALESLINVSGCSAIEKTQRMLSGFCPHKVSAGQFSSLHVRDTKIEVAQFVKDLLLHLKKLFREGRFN

biotinylated hIL-13 = biotinylated hIL-13 (human, UniProt P35225 35-146, limits assumed, biotinylated (site not stated)); assay: FACS; blockade of biotinylated hIL-13 (0.05 ug/mL) binding to HEK293 cells expressing hIL-13Rα1/hIL-4Rα
Chain of biotinylated hIL-13 (P35225 other isoform, or with tags, fused parts or gaps limits assumed): as above
Procedure: Briefly, HEK293 previously transduced to stably express both hIL-13Rα and hIL-4Rα were cultured and harvested. Cells were seeded at 200,000 cells in 100 uL per well. Cells were washed and the supernatant was discarded. […] The cells were stained in this mixture at 4° C. for 1 hour. […] Cells were incubated at 4° C. for 1 hour, protected from light. Cells were then washed and the median fluorescence intensity (MFI) of cells in each well were recorded by FACS using a BD FACSCanto II. Subsequent data were analyzed using GraphPad Prism.

[2] = target: T1, Recombinant Cynomolgus IL-13 Protein, …; assay: SPR (Biacore 8K), mAb captured on Protein G chip, IL-13 as analyte
Procedure: (§1) Samples were injected in a multi-cycle manner over freshly captured mAb, by regenerating the capture surfaces with injection of glycine pH 1.5 for 30 sec at a flow rate of 30 μL/min. The data was processed and analyzed with Biacore Insight Evaluation Software Version 2.0.15.12933 (GE Healthcare) as follows. […] The responses from the two buffer blank injections were then subtracted from the reference subtracted data (2-1) to yield double-referenced data, which were fit to an 1:1 binding model to determine the apparent association (ka) and dissociation rate constants (kd). Their ratio provided the apparent equilibrium dissociation constant or affinity constant (KD=kd/ka).

[3] = target: T3, Recombinant Human IL-13 Protein, His Tag (Acro Cat. IL3-H52H4) (human, UniProt P35225 35-146); assay: as above
T3 construct: Bought protein; also called Hu IL-13; not shown: His Tag
T3 sequence (P35225 other isoform, or with tags, fused parts or gaps limits assumed): as above
Procedure: as §1

hIL-13 [4] = target: T2, hIL-13; assay: cell-based or functional assay; remark: listed apart in the source
hIL-13 [5] = target: T2, hIL-13; assay: cell-based or functional assay; remark: listed apart in the source
hIL-13 [6] = target: T2, hIL-13; assay: ELISA

| Binder | pSTAT6 Inhibition IC50 (HT-29 cells) (hIL-13 [1]) [nM] | IC50 (biotinylated hIL-13) [nM] | Kd [2] [nM] | Kd [3] [nM] | TARC Inhibition IC50 (A549 cells) (hIL-13 [4]) [nM] | TF-1 Proliferation Inhibition IC50 (hIL-13 [5]) [nM] | Kd (hIL-13 [6]) [nM] |
| --- | --- | --- | --- | --- | --- | --- | --- |
| Construct 132 (antibody, human IgG1, kappa, L234A L235A, also called HC5; LC6) heavy: EVQLLESGGGLVQPGGSLRLSCAASGFSLNAYSVNWVRQAPGKGLEWLGMIWGDGKIVYNSALKSRLTISKDSSKNTVYLQMNSLRAEDTAVYYCAGDGYYPYAMDNWGQGTTVTVSSASTKGPSVFPLAPSSKSTSGGTAALGCLVKDYFPEPVTVSWNSGALTSGVHTFPAVLQSSGLYSLSSVVTVPSSSLGTQTYICNVNHKPSNTKVDKKVEPKSCDKTHTCPPCPAPEAAGGPSVFLFPPKPKDTLYITREPEVTCVVVDVSHEDPEVKFNWYVDGVEVHNAKTKPREEQYNSTYRVVSVLTVLHQDWLNGKEYKCKVSNKALPAPIEKTISKAKGQPREPQVYTLPPSRDELTKNQVSLTCLVKGFYPSDIAVEWESNGQPENNYKTTPPVLDSDGSFFLYSKLTVDKSRWQQGNVFSCSVMHEALHNHYTQKSLSLSPG light: DIQLTQSPSSLSASVGDRVTITCRASKSVDSYGNSFMHWYQQKPGKAPKLLIYLASNLESGVPSRFSGSGSGTDFTLTISSLQPEDFATYYCQQNNEDPRTFGGGTKVEIKRTVAAPSVFIFPPSDEQLKSGTASVVCLLNNFYPREAKVQWKVDNALQSGNSQESVTEQDSKDSTYSLSSTLTLSKADYEKHKVYACEVTHQGLSSPVTKSFNRGEC | 0.37 | 0.99 | 0.331 | 0.135 | 0.87 | 0.13 | – |
| Construct 143 (antibody, human IgG4, kappa, also called HC1; LC6_m8) heavy: EVQLQESGPGLVKPSETLSLTCTVSGFSLNAYSVNWIRQPPGKGLEWLGMIWGDGKIVYNSALKSRLTISKDSSKNQVSLKLSSVTAADTAVYYCAGDGYYPYAMDNWGQGTTVTVSSASTKGPSVFPLAPCSRSTSESTAALGCLVKDYFPEPVTVSWNSGALTSGVHTFPAVLQSSGLYSLSSVVTVPSSSLGTKTYTCNVDHKPSNTKVDKRVESKYGPPCPSCPAPEFLGGPSVFLFPPKPKDTLMISRTPEVTCVVVDVSQEDPEVQFNWYVDGVEVHNAKTKPREEQFNSTYRVVSVLTVLHQDWLNGKEYKCKVSNKGLPSSIEKTISKAKGQPREPQVYTLPPSQEEMTKNQVSLTCLVKGFYPSDIAVEWESNGQPENNYKTTPPVLDSDGSFFLYSRLTVDKSRWQEGNVFSCSVLHEALHSYTQKSLSLSLGK light: DIQLTQSPSSLSASVGDRVTITCRASKSVDSYGNSFMHWYQQKPGKAPKLLIYLASELESGVPSRFSGSGSGTDFTLTISSLQPEDFATYYCQQNNEDPRTFGGGTKVEIKRTVAAPSVFIFPPSDEQLKSGTASVVCLLNNFYPREAKVQWKVDNALQSGNSQESVTEQDSKDSTYSLSSTLTLSKADYEKHKVYACEVTHQGLSSPVTKSFNRGEC | 0.36 | 0.74 | 0.685 | 0.119 | 0.92 | 0.17 | – |
| Construct 138 (antibody, human IgG4, kappa, also called HC5; LC6_m8) heavy: EVQLLESGGGLVQPGGSLRLSCAASGFSLNAYSVNWVRQAPGKGLEWLGMIWGDGKIVYNSALKSRLTISKDSSKNTVYLQMNSLRAEDTAVYYCAGDGYYPYAMDNWGQGTTVTVSSASTKGPSVFPLAPCSRSTSESTAALGCLVKDYFPEPVTVSWNSGALTSGVHTFPAVLQSSGLYSLSSVVTVPSSSLGTKTYTCNVDHKPSNTKVDKRVESKYGPPCPSCPAPEFLGGPSVFLFPPKPKDTLYITREPEVTCVVVDVSQEDPEVQFNWYVDGVEVHNAKTKPREEQFNSTYRVVSVLTVLHQDWLNGKEYKCKVSNKGLPSSIEKTISKAKGQPREPQVYTLPPSQEEMTKNQVSLTCLVKGFYPSDIAVEWESNGQPENNYKTTPPVLDSDGSFFLYSRLTVDKSRWQEGNVFSCSVMHEALHNHYTQKSLSLSLGK light: DIQLTQSPSSLSASVGDRVTITCRASKSVDSYGNSFMHWYQQKPGKAPKLLIYLASELESGVPSRFSGSGSGTDFTLTISSLQPEDFATYYCQQNNEDPRTFGGGTKVEIKRTVAAPSVFIFPPSDEQLKSGTASVVCLLNNFYPREAKVQWKVDNALQSGNSQESVTEQDSKDSTYSLSSTLTLSKADYEKHKVYACEVTHQGLSSPVTKSFNRGEC | 0.19 | 1.01 | 0.348 | 0.108 | 0.97 | 0.23 | – |
| Construct 139 (antibody, human IgG4, kappa, also called HC5; LC6_m8) heavy: EVQLLESGGGLVQPGGSLRLSCAASGFSLNAYSVNWVRQAPGKGLEWLGMIWGDGKIVYNSALKSRLTISKDSSKNTVYLQMNSLRAEDTAVYYCAGDGYYPYAMDNWGQGTTVTVSSASTKGPSVFPLAPCSRSTSESTAALGCLVKDYFPEPVTVSWNSGALTSGVHTFPAVLQSSGLYSLSSVVTVPSSSLGTKTYTCNVDHKPSNTKVDKRVESKYGPPCPSCPAPEFLGGPSVFLFPPKPKDTLMISRTPEVTCVVVDVSQEDPEVQFNWYVDGVEVHNAKTKPREEQFNSTYRVVSVLTVLHQDWLNGKEYKCKVSNKGLPSSIEKTISKAKGQPREPQVYTLPPSQEEMTKNQVSLTCLVKGFYPSDIAVEWESNGQPENNYKTTPPVLDSDGSFFLYSRLTVDKSRWQEGNVFSCSVLHEALHSYTQKSLSLSLGK light: DIQLTQSPSSLSASVGDRVTITCRASKSVDSYGNSFMHWYQQKPGKAPKLLIYLASELESGVPSRFSGSGSGTDFTLTISSLQPEDFATYYCQQNNEDPRTFGGGTKVEIKRTVAAPSVFIFPPSDEQLKSGTASVVCLLNNFYPREAKVQWKVDNALQSGNSQESVTEQDSKDSTYSLSSTLTLSKADYEKHKVYACEVTHQGLSSPVTKSFNRGEC | 0.28 | 1.09 | 0.705 | 0.114 | 1.02 | 0.2 | – |
| Construct 140 (antibody, human IgG1, kappa, L234A L235A, also called HC5; LC6_m8) heavy: not shown light: DIQLTQSPSSLSASVGDRVTITCRASKSVDSYGNSFMHWYQQKPGKAPKLLIYLASELESGVPSRFSGSGSGTDFTLTISSLQPEDFATYYCQQNNEDPRTFGGGTKVEIKRTVAAPSVFIFPPSDEQLKSGTASVVCLLNNFYPREAKVQWKVDNALQSGNSQESVTEQDSKDSTYSLSSTLTLSKADYEKHKVYACEVTHQGLSSPVTKSFNRGEC | 0.33 | – | 0.252 | 0.0475 | 0.94 | 0.14 | 0.02 |
| Tralokinumab (antibody, V domains shown) VH: QVQLVQSGAEVKKPGASVKVSCKASGYTFTNYGLSWVRQAPGQGLEWMGWISANNGDTNYGQEFQGRVTMTTDTSTSTAYMELRSLRSDDTAVYYCARDSSSSWARWFFDLWGRGTLVTVSS VL: SYVLTQPPSVSVAPGKTARITCGGNIIGSKLVHWYQQKPGQAPVLVIYDDGDRPSGIPERFSGSNSGNTATLTISRVEAGDEADYYCQVWDTGSDPVVFGGGTKLTVL | 0.41 | – | 1.48 | 0.116 | 4.14 | 0.59 | – |
